In publication PMC8782398:
“And” between values parts separate entries of the source, which are not always exact repeats. Identical values can stand only once.

T1: human delta opioid peptide (DOP) receptor in CHO cells (human), P41143
T1 chain: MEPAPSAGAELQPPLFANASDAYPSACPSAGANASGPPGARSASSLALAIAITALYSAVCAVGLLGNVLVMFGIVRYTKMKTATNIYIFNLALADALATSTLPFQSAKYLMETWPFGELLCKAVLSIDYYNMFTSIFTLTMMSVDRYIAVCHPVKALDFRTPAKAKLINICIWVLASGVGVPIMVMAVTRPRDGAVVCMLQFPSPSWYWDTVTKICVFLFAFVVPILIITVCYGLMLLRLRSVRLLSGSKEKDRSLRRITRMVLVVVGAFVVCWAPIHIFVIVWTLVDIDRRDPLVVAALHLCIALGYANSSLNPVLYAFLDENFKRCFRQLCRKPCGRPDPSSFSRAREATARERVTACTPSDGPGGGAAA

B1: Dermorphin-Nociceptin/Orphanin FQ (DeNO) (peptide)
chain 1: YAFGYPS
chain 2: FGGFTGARKSARKLANQC
modifications: not checked
B2: Dermorphin-UFP101 (De101) (peptide)
chain 1: YAFGYPS
chain 2: FGGFTGARKSARKRKNQC
modifications: not checked

Assays:
[1] = biological target: human MOP receptor in HEK293 cells (human), P35372
Chain of human MOP receptor in HEK293 cells (human), P35372 (P35372 whole entry): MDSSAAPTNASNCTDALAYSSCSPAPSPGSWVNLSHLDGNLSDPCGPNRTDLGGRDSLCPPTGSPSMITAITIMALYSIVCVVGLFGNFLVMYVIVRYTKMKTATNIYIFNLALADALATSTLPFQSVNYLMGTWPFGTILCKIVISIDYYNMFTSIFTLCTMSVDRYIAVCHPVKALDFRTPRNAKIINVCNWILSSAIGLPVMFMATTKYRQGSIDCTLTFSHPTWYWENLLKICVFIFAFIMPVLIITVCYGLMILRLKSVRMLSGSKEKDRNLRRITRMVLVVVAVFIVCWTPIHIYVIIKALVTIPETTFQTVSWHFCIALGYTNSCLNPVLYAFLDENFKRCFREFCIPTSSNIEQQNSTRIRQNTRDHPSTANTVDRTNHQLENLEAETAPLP

[2] = biological target: human MOP receptor in HEK293 cells (human), P35372; assay: radioligand binding
[3] = biological target: T2, human mu opioid peptide (MOP) receptor in CHO cells (human), P35372
T2 sequence (P35372 whole entry): as above

[4] = biological target: human KOP receptor in CHO cells (human), P41145; assay: radioligand binding
Chain of human KOP receptor in CHO cells (human), P41145 (P41145 whole entry): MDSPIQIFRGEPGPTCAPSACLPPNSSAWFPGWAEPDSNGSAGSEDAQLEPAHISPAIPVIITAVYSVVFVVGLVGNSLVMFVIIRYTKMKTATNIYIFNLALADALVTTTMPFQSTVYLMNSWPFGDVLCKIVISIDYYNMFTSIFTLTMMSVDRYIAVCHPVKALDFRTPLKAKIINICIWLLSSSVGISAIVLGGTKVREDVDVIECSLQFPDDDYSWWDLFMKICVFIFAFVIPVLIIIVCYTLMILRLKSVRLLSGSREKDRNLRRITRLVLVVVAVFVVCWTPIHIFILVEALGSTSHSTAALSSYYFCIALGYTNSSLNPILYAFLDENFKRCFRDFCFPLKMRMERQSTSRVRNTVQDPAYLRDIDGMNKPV

[5] = biological target: T1, human delta opioid peptide (DOP) …; assay: radioligand binding
[6] = biological target: T2, human mu opioid peptide (MOP) receptor …; assay: radioligand binding

Row | Binder | GTPγ[35S] binding, HEKMOP membranes: Emax (stimulation factor) (stimulation factor) [1] | inhibition of forskolin-stimulated cAMP formation, HEKMOP cells: Emax (% inhibition) [1] [%] | other [2] | GTPγ[35S] binding, CHOMOP membranes: maximal response (stimulation factor) (stimulation factor) [3] | other [4] | other [5] | other [6]
1 | B1 | 1.53 | 77.3 | 9 and 8.44 |  |  |  | 
2 | B2 | 1.44 | 73.3 | 9.28 and 8.63 | 2.71 | 7.61 | 7.95 | 9.64
3 | YAFGYPS (modifications not checked) [Dermorphin] | 1.43 | 75.6 |  | 2.63 |  |  | 
